Assay results: US20260008817A1, “CYCLIC PEPTIDE OR SALT THEREOF, AND USES THEREOF” (FUJIFILM Corporation, priority 2023, published 2026)
Positions of bridges follow the written chain, without caps; N, C: chain ends. No end group written: not given here. COCH2 = acetyl group that carries the bridge

Target: T1, Recombinant Human FGFR1 alpha (IIIc) Fc Chimera Protein (Homo sapiens, UniProt P11362)
T1 construct: purchased R&D systems 658-FR-050
Assay: ELISA binding affinity of enzymatically synthesized peptide to FGFR
Conditions: ELISA luminescence signal at 10 nmol/L peptide, SEQ ID NO: 239 standardized to 1; enzyme synthesis product
Outline: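 Cell-free PUREfrex-translated cyclic peptides (Myc/HiBiT-tagged, quantified by HiBiT luminescence) bound 3 h at room temperature to immobilized FGFR1α(IIIc)-Fc, detected with anti-Myc and chemiluminescence. FGFR-specific signal at 10 nmol/L normalized to a reference cyclic peptide and graded A–D.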

T1 sequence (P11362 with tags, fused parts or gaps limits assumed): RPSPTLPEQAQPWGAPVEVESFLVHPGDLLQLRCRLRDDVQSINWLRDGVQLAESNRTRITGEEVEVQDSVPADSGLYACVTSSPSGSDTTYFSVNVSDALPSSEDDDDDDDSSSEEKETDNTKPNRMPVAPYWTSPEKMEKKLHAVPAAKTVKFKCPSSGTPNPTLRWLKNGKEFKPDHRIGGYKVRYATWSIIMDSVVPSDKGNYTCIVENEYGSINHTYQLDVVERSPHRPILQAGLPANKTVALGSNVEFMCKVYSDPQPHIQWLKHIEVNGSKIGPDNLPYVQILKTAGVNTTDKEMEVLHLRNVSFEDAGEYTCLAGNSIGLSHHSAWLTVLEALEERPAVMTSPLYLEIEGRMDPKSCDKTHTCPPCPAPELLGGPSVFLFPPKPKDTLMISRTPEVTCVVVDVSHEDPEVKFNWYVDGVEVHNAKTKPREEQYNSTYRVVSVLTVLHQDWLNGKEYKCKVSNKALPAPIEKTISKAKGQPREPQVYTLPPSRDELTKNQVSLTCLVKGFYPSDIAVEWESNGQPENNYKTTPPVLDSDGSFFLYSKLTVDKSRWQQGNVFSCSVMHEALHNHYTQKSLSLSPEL

Substance	Evaluation result of binding affinity to FGFR
115 (ICVYTFDADAHSLHAALTKI; Description of Artificial Sequence: Cyclic peptide) [compound 115]	A (0.7 or more)
67 (ICVYIFDAHAHSLHAALTK(COCH2)I; thioether 2-19 (inferred)) [compound 67]	C (0.1 or more and less than 0.5)
98 (ICVYTFDSHAHSLHAALTK(COCH2)I; thioether 2-19 (inferred)) [compound 98]	A (0.7 or more)
84 (ICVYTFFAHAHSLHAALTK(COCH2)I; thioether 2-19 (inferred)) [compound 84]	C (0.1 or more and less than 0.5)
43 (VCVYTFDAHAHSLHAALTK(COCH2)I; thioether 2-19 (inferred)) [compound 43]	A (0.7 or more)
36 (CRALLRGAPFHLAEK; not fully specified; Description of Artificial Sequence: Cyclic peptide) [compound 36]	D (less than 0.1)
61 (ICVFTFDAHAHSLHAALTK(COCH2)I; thioether 2-19 (inferred)) [compound 61]	C (0.1 or more and less than 0.5)
114 (ICVYTFDATAHSLHAALTKI; Description of Artificial Sequence: Cyclic peptide) [compound 114]	A (0.7 or more)
41 (PCVYTFDAHAHSLHAALTK(COCH2)I; thioether 2-19 (inferred)) [compound 41]	A (0.7 or more)
46 (WCVYTFDAHAHSLHAALTK(COCH2)I; thioether 2-19 (inferred)) [compound 46]	B (0.5 or more and less than 0.7)

Next, values leading:

Evaluation result of binding affinity to FGFR	Substance
A (0.7 or more)	156 (ICVYTFDAHAHQLHAALTK(COCH2)I; thioether 2-19 (inferred)) [compound 156]
A (0.7 or more)	311 (ICVYTFDAHAQSLHDALTK(COCH2)I; thioether 2-19 (inferred)) [compound 311]
A (0.7 or more)	185 (ICVYTFDAHAHSLNAALTK(COCH2)I; thioether 2-19 (inferred)) [compound 185]
C (0.1 or more and less than 0.5)	238 (VCIWVFNRFAHTLKESLTK(COCH2)V; thioether 2-19 (inferred)) [compound 238]
C (0.1 or more and less than 0.5)	170 (ICVYTFDAHAHSQHAALTK(COCH2)I; thioether 2-19 (inferred)) [compound 170]
A (0.7 or more)	302 (ICVYTFDAHAHSLDDALNK(COCH2)I; thioether 2-19 (inferred)) [compound 302]
A (0.7 or more)	294 (ICVYTFDAHAHSLDAALTK(COCH2)Q; thioether 2-19 (inferred)) [compound 294]
C (0.1 or more and less than 0.5)	273 (PCWWATQIWTYPFYKV; Description of Artificial Sequence: Cyclic peptide) [compound 273]
C (0.1 or more and less than 0.5)	152 (ICVYTFDAHAHFLHAALTK(COCH2)I; thioether 2-19 (inferred)) [compound 152]
A (0.7 or more)	292 (ICVYTFDAHAHSLDAALNKI; not fully specified (residue 19, bridges)) [compound 292]
C (0.1 or more and less than 0.5)	209 (ICVYTFDAHAHSLHASLTK(COCH2)I; thioether 2-19 (inferred)) [compound 209]
C (0.1 or more and less than 0.5)	216 (ICVYTFDAHAHSLHAALPK(COCH2)I; thioether 2-19 (inferred)) [compound 216]
C (0.1 or more and less than 0.5)	243 (QCYLPSWFYQKARLLFQYIK(COCH2)S; thioether 2-20 (inferred)) [compound 243]
